{
  "source": "a protein production outcome set (Wang et al. 2014)",
  "data": [
    {"assay": "label from the status in PepcDB records", "values": [
      {"sequence": "MQLIRGFHNLANYDALKKGCVLTIGNFDGVHIGHQNILARLCDQSLAIGLPSVVMLFEPQPREFFAKNSQNQTASALSNAVPARLMRLRDKLKYLAEMGVDFVLCVNFNQKFAKYSAEDFITELLVKKLKVRYLSVGDDFRFGIERRGNFEMLRNAGLTHRFAVEESHTHRFDTLRISSSLIRQALQQNDLALVENLLGKPYSIRGRVAHGNKLGRTIGFPTANIMLNRLVTPIQGVFIVEVQTIYGRFNGIANVGNRPTINGTKPLLEVHIFDFNNAIYHQIIEVIFIKKIRDELKFASFTLLKEQIEKDCQQAVEFFNQLPKTK", "protein production": "failed"},
      {"sequence": "MQLNESMSTQDNSLAENYYQQAIEQWKSRDQKQALQFFKKAVRAKPSNAHYWYALAGTYHIQNKFRAARFCFEKSLNLNPNQDEIKIFLCEICYLLTDYKSVAYYAGQVDLSKIQNLEILYKVACSFKELGQLEKTGQVCSQILSLDDNFWQAKLLAAEILRIKGYSGEAKVLVLELIDQQPTVGKFWNELGINEVDLAHEDEALSAFSKAEQYVSGPEKLIIGSNYLFEFSSGLRTAKDILDAHLLWNKKYCKDQGGSFQSSKFNYLKSNDKKNIAYLSGDFKTHSVSYFIEGILENHSRDAFNIILLSNTQEDEKTKKFKELADIWIDLKLTNFETAAQIVKRLNIDILIELSGHTNGNKLNLLSSRLAPVQATYLGYFATTGLSTIDYWITDNVVHPAHTVELATETIFRLPRCYLAYTPPPQSPSIAESPVIKNGYITFGSFVASRKISDYSILLWSSILSEIPNSQLLIKNRSCVSPLYRSELIEKFSLCGISSQRINFNEAKLNLEDHLALYNKVDIALDTYPASGCTTTVEALWMGVPVLTRLGELMVSRNSASLLHALNLQNWIAETDEEYIDKGIKFTQSIEQLALLRQGMRERFMQSELYDSRGLTLHLEDFYLKALQEKLSANKEVRF", "protein production": "failed"},
      {"sequence": "MQLSWKDIPTVAPANDLLDIVLNRTQRKTPTVIRPGFKITRIRAFYMRKVKYTGEGFVEKFEDILKGFPNINDVHPFHRDLMDTLYEKNHYKISLAAISRAKSLVEQVARDYVRLLKFGQSLFQCKQLKRAALGRMATIVKKLRDPLAYLEQVRQHIGRLPSIDPNTRTLLICGYPNVGKSSFLRCITKSDVDVQPYAFTTKSLYVGHFDYKYLRFQAIDTPGILDRPTEEMNNIEMQSIYAIAHLRSCVLYFMDLSEQCGFTIEAQVKLFHSIKPLFANKSVMVVINKTDIIRPEDLDEERAQLLESVKEVPGVEIMTSSCQLEENVMEVRNKACEKLLASRIENKLKSQSRINNVLNKIHVAQPQARDDVKRTPFIPESVKNLKKYDPEDPNRRKLARDIEAENGGAGVFNVNLKDKYLLEDDEWKNDIMPEILDGKNVYDFLDPEIAAKLQALEEEEEKLENEGFYNSDDEEEIYDGFEASEVDDIKEKAAWIRNRQKTMIAEARNRKSLKNKAIMPRSKLTKSFGKMEEHMSTLGHDMSALQDKQNRAARKNRYVERGSDVVFGDQDALTASTENGVKLRQTDRLLDGVADGSMRSKADRMAKMERRERNRHAKQGESDRHNAVSLSKHLFSGKRGVGKTDFR", "protein production": "failed"},
      {"sequence": "MQLTSQAFSYGRPIPKKYSCQGVGISPPLSFSDVPREAKSLVLIVEDPDVPPSVREDGLWIHWIVYNLSPVVSNLAEGAQIFAVQGLNTAGEIGYCPPCPPDAKHRYYFYAYALDVVLSDEEGVTKEQLLEAMDGHIIATAELMGTYEKD", "protein production": "not failed"},
      {"sequence": "MQNCATGMQMDWISLLKAQQADFLLRVKKPKTYDLSLLESQVKGCHSEIMAFWGEPFAKIQEVSRRQAEILAKNPPPIPPEYPEPPDWTIPFPIHFQQQAEDYFLREQIVDRLIVERLGKLLKKLPQDTVKNMVLDDEGNLRGESKFTYLLADNPKISVQVYVADGESFNGIKKDKIKWSVTQEDLKNHQVLIFLCLFYPSTGKLGYEKQAVVAGFLPTSHIAVTEPKLYFTPSHLLYAGGLSWYLESLTAKKEAKLDFLPVVIERTIPETIQTVPSEHPRKEIIGDWECWQTLRGHMRGINCLSFSSGCENGLPMLASGSRGETKLWDLNQGELIDTLSEYPWIVSGLVDEVNSLAFSADGQMLVSGGADSTIKIWHTGALDLIDILHKHNGIVRCAAFTPDGQMLATGGDDRRILFWDLMHRQVKAILSLDDTAAHSLVLSRDGQTLVTGSYRKIKVWQTSGSWFGKNLKDAQPLHTLMGHGHIVRSLAMSKDGQLLISGSWDQTIKIWHLATGRLIRTLKGHTDKVYAIALSPDEQIIASGSSDQTIKLWHLETGELLATFTGHTDIVTALTFTTSGEMLVSGSLDKTIKLWQRS", "protein production": "failed"},
      {"sequence": "MQNLSLQKALKKPEVKTLLQQLGDSLGKNFAIFDIGGHCLWGKAQDSQPKVDIYCHQVLMGTITGEFTEHSAEAIAAMLSYIVQTEYEKKQLAKDTLQKYEEVVFLSQFANAVATCTGLQELIEVIRAEIRQVISVDEIFLYLYDQSQDSLTPLLYKTEESLQNFKAIEKIVERVLKLNQVEVIDDIQNDQDYLNQPSKIRSLLCYSLTVQNSIIGVLGLAHYQVKHFDSSDLNLFSTLTGQVAAAIRTAQYYETIKNYSQTLEIRVKERTMELEFAKQQLEQVNQRLKHLAIYDELTQIPNRRYFTSYLEQEWRQCLRQKSPISLILCDVDYFKNYNDLYGHQMGDKCLQSVAKVIQNALKRPSDVLARYGGEEFIVILPYTDQSGAYTVGQRIHHCLAEAQISHADSPTSRYLTISLGIGTTVPLLHYHPSDLIKIADQALYAAKAAGRNQTKLKTLSFQCS", "protein production": "failed"},
      {"sequence": "MQNRWAETKFDSDIDEVVYGSRLIGSDPDLVLHGGGNTSVKTTERDHAGRIISVLRVKNSGSNLGTIDSRGFTGIRMDDALAAAKIDKMTDEAMVDYLKKSMVNPSEPSPSVETFLHAFLPYKFVMHSHADAILSITNTDLPSDQIAKILGNVVVLPYIPPGFTLAKEVMNCFKKGIDGIVLRKHGLLTFGDTGKEAYDRHINIVSRAENFIREKTDGK", "protein production": "not failed"},
      {"sequence": "MQNSFLPLNTRRFRQRAQVETPDTVYWDRLAKPELLKEHNTIDYLDFSPSDPDNFVVTCSVRVQIYNLVTMLVVKNLSRFQKTAYGATFRQDGRLLAAGDEEGHVKLFDTTSRNILRLFKGHTAPVHRTFFTADKLQLASFGDDKSVRLWDVANEKVVQTYEDTHTDYVRAGAMHPQAGHMFVSGGYDGKIKLYDTRAETAVQRTLDHGAPVESMLFLPNGSIFVSAGGSQVRVWDLISGCRLLTMMSQHHKTVTCLRLGSDGRRLLSGGLDRHVKIYDVSTYKTVHTLTYPNAVVSMAVADGDQAVVAGMVDGLVSIRRMMVDSKPSHLKKIRADRARKYFVSTKRTNNTQEVDHTIKDHVKGPGLKSYDVHLRQFNHKKALDDVMNAQKMQYQPELIVAVITDLLHRGSLGKALTGRHEAALVRFIDFICNHLGEVRFMRPLMMAASTVLDVFEQRLVAYSQKLMKALQRLSLAMQEEVRLTAELMRMKGAVDMLIGISMDNSEVAHKPTYVETKTPKMHPSVAAQNYVVLVE", "protein production": "failed"},
      {"sequence": "MQNTTHDNVILELTVRNHPGVMTHVCGLFARRAFNVEGILCLPIQDSDKSHIWLLVNDDQRLEQMISQIDKLEDVVKVQRNQSDPTMFNKIAVFFQ", "protein production": "failed"},
      {"sequence": "MQPELTKTPANFPLSPLGAVVILGDIPNPELLAIPLAPTPSTMFGPRGACLVAETGALWVSDTGHHRLLGWRKLPTTDSQPADWVIGQPDFYHEGQNAKGTPGRTTVSVPTGICVCGGGLAIADAWNHRVLIWHKIPEDSNVPADLVLGQRNFSENEPNRGKQSPDANTMHWPYGVAYHQGKLFVADTGNRRLLIWQQLPTENGQPADIVLGQPDMISRNENGGGSPTAGSMRWCHDIAFWDDNLVVTDAGNNRVMIWQGIPTENNAPCAVVLGQKSFDLVEMNQGVYFPSAGSLSMPYGVGATEDWLMVADTANSRLLGWRKRESILLLQGAIADGIIGQNSFQSKSENRHFGLPTRDSLNWCYGVKVCGSTAVISDSGNNRVLLWRFLLEHHHHHH", "protein production": "failed"},
      {"sequence": "MQPFYIKKGRGSVIYSSVRKDLPPFHLFQMGKYSVVEDFSCLNNAVGDIVIGDYCRIGLGNTVIGPIRIDNGVNISQNVVLIGLDHNYQDITQGIIEQGITTSPIHIGEHTIIGANVIVLPGITIGKHCFIGAGCVVTQNIPDYCVTVGNPARIIKRYNPQSQTWEKILEHHHHHH", "protein production": "failed"},
      {"sequence": "MQPPSHAPRQLAAADLAVGQVVAQREIRLDAQAFAQFAALTGDAHPIHYDAGYAQRQGLRAPIAHGLLLVAISALGATPLSAQLHDAMVAMVGVEAVFMRPVYVDETVQCVYRVAQIEHVAKGRSKTTIAVSIHTTDAPPDAARQAHCVVHLTFLLKTHLQG", "protein production": "failed"},
      {"sequence": "MQPTSITVASYNLRNANGGDSINGNGWGQRYPVIAQIVQYHDFDIFGTQECFIHQLKDMKEALPGYDYIGVGRDDGKEKGEHSAIFYRTDKFDVIEKGDFWLSETPDVPSKGWDAVLPRICSWGHFKCKDTGFEFLFFNLHMDHIGKKARVESAFLVQDKMKELGKGKELPAILTGDFNVDQTHQSYDAFVSKGVLCDSYEKAGFRYAINGTFNDFDPNSFTESRIDHIFVSPSFQVKRYGVLTDTYRSIVGKGEKKQANDCPEEIDIKTYQARTPSDHFPVKVELEFDQRQQKLEHHHHHH", "protein production": "not failed"},
      {"sequence": "MQPWTQIYTPLGSLWLSALAAAIPILFFFVALAVLRMKGHVAAAVTLALALAVAIFAYGMPAQQAFAAAGFGFAYGLWPIAWIIVTAVFLYKIVVKTGQFDVIRASVLSITDDQRLQMLLIGFAFGAFLEGAAGFGAPVAITAALLVGLGFNPLYAAGLCLIANTAPVAFGAMGIPIIVAGQVTGIDPMHIGAMAGRQLPLLSLAVPFWLVFMMDGAKGVRETWPAALVVGGSFAVTQYFTSNHIGPELPDITSALVSLISLAAFLRVWQPRSASQAAGGTVAAGGTVAMAGFGGGMGAPASRKASPYTFGQTVRAWAPFGILTAIVTVWSLAPFKALFAGNGALAGTVLKFKVPMLDQLVIKSAPIVASPKPYEAVLKLDLLSAVGTAILLTAIISAVLLRMKPSDAITTFKETLLELRRPIASIGLVLAFAFVANYSGMSSTLALLLAGTGAAFPFFSPLLGWLGVFLTGSDTSSNALFCSLQHTTAHQIGVSDTLLVAANTTGGVTGKMISPQSIAVACAATGLVGKESELFRFTVKHSLLFAAIVGVITMIQAYWLTGMIPG", "protein production": "failed"},
      {"sequence": "MQQSEHFSFGEQTEIEDIGGGLKRQMLGFNHELMAVKIWFDKGAEGYVHAHRHSQVSYVVEGEFHVNVDGVIKVLTAGDSFFVPPHVDHGAVCPTGGILIDTFSPAREDFVEGLS", "protein production": "not failed"},
      {"sequence": "MQRFVLRDWHYRGLSMSLMAQTDKPNIVIIMTDQQRADLCGREGFPLAVTPYVDQLAQENVWFNKAYTVAPASSPARCSMFTGRFPSATHVRTNHNIPDIFFEQDLVGVLKENGYKTALVGKNHAYLKPADLDFWSEYGHWGKNKKTTPEEKETARFLNQKARGQWLEPSPIPVEEQHPAKIVNETLSWIESQKENPFFVWVSFPEPHNPYQVCEPYYSMFSPDKLPVLKTSRKDLEKKGEKYRILAELEDASCPNLEQDLPRIRANYIGMIRLIDDQIKRLIESLKASGQFENTIFVVLSDHGDYWGEYGLIRKGAGLSESLARIPMVWAGYHVKNQSAPMDSHVSIADIFPTLCSAIGAKIPAGVQGRSLWPMLTGKEYPKEEFSSIVVQQGFGGAHVGLDSSLTFEQEGALTPGKIAYFDELNTWTQSGTSRMVRKDDWKLVMDNYGNGELYNLKKDPSEVDNLFGKKKYTAVQTELLTKLVAWELRLQDPLPLPRKRYHFKQDPYNYLQPEQLEHHHHHH", "protein production": "failed"}
    ]}
  ]
}
